Sequences and labels used below:
B1: Mortality factor 4-like protein 1 (Homo sapiens), Q9UBU8-2 (parent)
chain: MAPKQDPKPKFQEGERVLCFHGPLLYEAKCVKVAIKDKQVKYFIHYSGWNKNWDEWVPESRVLKYVDTNLQKQRELQKANQEQYAEGKMRGAAPGKKTSGLQQKNVEVKTKKNKQKTPGNGDGGSTSETPQPPRKKRARVDPTVENEETFMNRVEVKVKIPEELKPWLVDDWDLITRQKQLFYLPAKKNVDSILEDYANYKKSRGNTDNKEYAVNEVVAGIKEYFNVMLGTQLLYKFERPQYAEILADHPDAPMSQVYGAPHLLRLFVRIGAMLAYTPLDEKSLALLLNYLHDFLKYLAKNSATLFSASDYEVAPPEYHRKAV

The variants in one test derive from B1. The following applies: with mrgbp_human MRGBP.
For the variant L291A, the “effect of a mutation on the interaction” value is listed as “disrupting interaction strength”.

Variants of B1 are the subject of another test. The note with it: with mr1l1_human MRFAP1L1, Q96HT8.
mr1l1_human MRFAP1L1, Q96HT8, sequence (Q96HT8 whole entry): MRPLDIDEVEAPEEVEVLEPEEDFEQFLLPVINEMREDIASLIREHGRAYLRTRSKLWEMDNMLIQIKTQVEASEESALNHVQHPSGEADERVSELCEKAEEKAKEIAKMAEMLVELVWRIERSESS
For V169E, the “effect of a mutation on the interaction” value is on record as “disrupting interaction”.

The record behind these values is IntAct's records for PubMed 16407074.
